This is an account of results in PMC8546555, “Colicin-Mediated Transport of DNA through the Iron Transporter FepA” (mBio, 2021).

In this assay the target is T1, FepA overexpressed from pBAD/Myc-HisB (E. coli, UniProt P05825 23-746).
T1 construct: FepA, outer membrane ferric enterobactin transporter of E. coli; source: E. coli BW25113 ΔFepA (JW5086-3) or BL21(DE3), pBAD/Myc-HisB, overexpressed; on live cells, or in a detergent-extracted OM protein fraction
T1 sequence: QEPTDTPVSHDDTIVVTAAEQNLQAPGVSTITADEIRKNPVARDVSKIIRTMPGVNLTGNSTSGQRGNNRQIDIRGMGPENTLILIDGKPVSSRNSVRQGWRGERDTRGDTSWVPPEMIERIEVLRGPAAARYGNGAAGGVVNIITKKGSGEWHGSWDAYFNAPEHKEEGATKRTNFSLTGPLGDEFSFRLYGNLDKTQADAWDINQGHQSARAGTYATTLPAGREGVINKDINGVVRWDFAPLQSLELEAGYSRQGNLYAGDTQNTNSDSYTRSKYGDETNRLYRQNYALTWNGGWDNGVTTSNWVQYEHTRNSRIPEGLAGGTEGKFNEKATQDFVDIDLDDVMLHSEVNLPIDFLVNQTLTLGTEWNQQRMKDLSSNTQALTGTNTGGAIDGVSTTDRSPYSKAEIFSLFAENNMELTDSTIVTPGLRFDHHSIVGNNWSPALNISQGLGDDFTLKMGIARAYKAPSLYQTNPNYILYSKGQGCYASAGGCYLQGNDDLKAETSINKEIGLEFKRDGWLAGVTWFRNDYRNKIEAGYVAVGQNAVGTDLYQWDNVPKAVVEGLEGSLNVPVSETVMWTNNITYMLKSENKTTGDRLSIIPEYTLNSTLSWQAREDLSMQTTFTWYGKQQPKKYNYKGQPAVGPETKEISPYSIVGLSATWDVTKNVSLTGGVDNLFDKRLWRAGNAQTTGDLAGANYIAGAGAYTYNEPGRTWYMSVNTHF
As to the kind of experiment: native MS; 60 mg ColB-RT added to a 5-liter culture of BW25113(ΔFepA) cells overexpressing FepA; complex detergent extracted, purified by nickel affinity and size exclusion chromatography; 100 mM ammonium acetate, 1% β-OG, pH 6.9. Conditions: one partner purified. Background: Size exclusion chromatography separates by hydrodynamic size, large species first.

Broadly, the stoichiometry N is a count of units in the complex or per binding partner.

B1: ColB-RT (341 aa) (domain or fragment)
chain: MSDNEGSVPTEGIDYGDTMVVWPSTGRIPGGDVKPGGSSGLAPSMPPGWGDYSPQGIALVQSVLFPGIIRRIILDKELEEGDWSGWSVSVHSPWGNEKVSAARTVLENGLRGGLPEPSRPAAVSFARLEPASGNEQKIIRLMVTQQLEQVTDIPASQLPAAGNNVPVKYRLTDLMQNGTQYMAIIGGIPMTVPVVDAVPVPDRSRPGTNIKDVYSAPVSPNLPDLVLSVGQMNTPVRSNPEIQEDGVISETGNYVEAGYTMSSNNHDVIVRFPEGSGVSPLYISAVEILDSNSLSQRQEAENNAKDDFRVKKEQENDEKTVLTKTSEVIISVGDKVGEYLG
notes: not shown: His6, C-terminal, kept
With B1, the “stoichiometry N” value came to 1.
